Laboratory results taken from US20240026407A1, “MODIFICATION OF SAPONINS” (GLAXOSMITHKLINE BIOLOGICALS SA, priority 2020, published 2024).

Key:
[1] = Example 10: derhamnosylation of saponins in crude bark extract (50%) using WT and engineered rhamnosidases R1 to R5; type: biochemical, Quillaja saponaria; settings: 7 h, 50% CBE, 35 degC; for % Right Peak: starting CBE 26; for % Left Peak: starting CBE 30; for % Middle Peak: starting CBE 44
[2] = Example 9: screening of rhamnosidase variants for derhamnosylation of saponins in crude bark extract; type: biochemical, Quillaja saponaria; settings: for Cumulative FIOP from WT: estimate
In short: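 His-tagged Kribbella flavida rhamnosidase variants expressed in colonies; cell lysates added at the indicated % loading (1% = 2 ul lysate per 200 ul reaction) to pH 6 Quillaja saponaria aqueous bark extract (≥2.80 mg/ml QS-21) at 75% or 80% volume. Quenched with acidified MeCN, analysed by UV HPLC; activity as % conversion of the QS-17-family Left Peak.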

[3] = rhamnosidase 0.31 mg/ml + glucosidase G5 0.5 mg/ml
[4] = rhamnosidase 0.31 mg/ml, no glucosidase
[5] = R4 round: 35 deg C, 18 h, lysate 0.125% v/v, CBE 75% v/v, 100 mM Sodium acetate pH 5.8
[6] = rhamnosidase 2.5 mg/ml + glucosidase G5 0.5 mg/ml
[7] = rhamnosidase 2.5 mg/ml, no glucosidase
[8] = R1 round: 20 deg C, 22 h, lysate 1.25% v/v, CBE 80% v/v, 100 mM Potassium phosphate pH 6

B1: Variant R4: engineered rhamnosidase polypeptide, variant of Kribbella flavida rhamnosidase SEQ ID No. 1017 (protein)
chain: MSFPAAPARLRFEHRTDPGPVLGIGTATPRLSWQVPTAPDDYRQAGYEVEIARGDAAPEQYTVDSADQVLVPWPGTPLAARESATVRVRVRGDGDWSQWSDPATVEAGLLSADDWTARFVSPRENAGHEAPAPLIGGVIDLPPDIAQARLYATAHGIYEPTLNGTRVGDEQLAPGWTAYEQRLRYQTYDVTDLVAPGENRLELLVGNGWYRGRMSFHNGHSLYGDRLAVLAQLEVTTATGEVKVLASDGTWTTRETNVLADDLYDGQHVDLRRTLGEPGPVDVLDADLSLLVAPDGPPVRVTDVLPAKAVTTSPAGKTLVDFGQNVVGRLRLRVRGGAAGDEIVLRHAEVLEDGELCVRPLRTAKATDSFVLAGPDEVTLEPTLTFHGFRYAEITGVPDLRAEDVEAVVVGSDLRRTGWFESSHPLLDRFHENVVWGMRGNFLDVPTDCPQRDERLGWTGDIQVFSPTASFLFDTAGFLTNWLADLIAEQHKDGSVPFVVPDVLRQPSPATAAWGDAATIVPWVLYERTGDAGLLARQLPSMRAWVDRMAGLAGDDLLWVGGFQFGDWLDPTAPPDDPFRAKADPDVLATAHLARSAEVVALAAEVVGAGELAREYAELAARVRQAFAAEYTTASGRVLSDAATNYALALQWALLPTEAQRKRAGERLADLVRTAGFRISTGFVGTPLMADALADSGHPDLAYRLLLETGCPSWLYAVTMDATTVWERWDSMLPDGSINPGQMTSFNHYALGAVADWMHRRVAGLAPGDPGYRRIVVDPLFTAHLTKASARHLTPYGEAAVAWSRSGGRVRLEVTVPVGARARVAVPGESAPVEVGHGTHEWTADDVYGETPPLPADATIRQLIDHEPSWTTLAAAATRTGIVADDAELAGRLERYLDHPATELVDAVSPRGFSPSAEALHAELDSVLGR
modifications: Seq ID No. 1017 with mutations A143P, L214M, G215S, G218N, K219G, G357C, G508S, G634A, Q921H
For B1, the “% change in Left Peak” value [1, 3] was −42%, the “% change in Middle Peak” value [1, 3] was −93% and the “% change in Right Peak” value [1, 3] was 306%. The “Cumulative Fold improvement in primary enzyme loading × time” value (“Cumulative Fold improvement” below) [1, 3] was 16, the “Fold improvement in primary enzyme loading × time” value [1, 3] was 2.0 and the “% Right Peak” value [1, 3] was 79%. For the same molecule, the “% Left Peak” value [1, 3] was 17%, the “% Middle Peak” value [1, 3] was 3% and the “% change in Left Peak” value [1, 4] was −45%. For the same molecule, the “% change in Middle Peak” value [1, 4] was 22%, the “% change in Right Peak” value [1, 4] was 115% and the “Cumulative Fold improvement” value [1, 4] was 16. For the same molecule, the “Fold improvement in primary enzyme loading × time” value [1, 4] was 2.0, the “% Right Peak” value [1, 4] was 30% and the “% Left Peak” value [1, 4] was 16%. For the same molecule, the “% Middle Peak” value [1, 4] was 54%, the “% conversion (Right peak/Left Peak) (−neg control)” value [2, 5] was 5.06% and the “Cumulative FIOP from WT” value [2, 5] was 22.1. For the same molecule, the “Right Peak %” value ([2]; R4 round: 35 deg C, 18 h, lysate 0.125% v/v, CBE 75% v/v, 100 mM Sodium acetate pH 5.8, negative control 26.09) was 27.00%, the “Left Peak %” value ([2]; R4 round: 35 deg C, 18 h, lysate 0.125% v/v, CBE 75% v/v, 100 mM Sodium acetate pH 5.8, negative control 29.62) was 25.03% and the “Middle Peak %” value ([2]; R4 round: 35 deg C, 18 h, lysate 0.125% v/v, CBE 75% v/v, 100 mM Sodium acetate pH 5.8, negative control 44.29) was 47.96%. The “% conversion (Right peak/Left Peak)” value ([2]; R4 round: 35 deg C, 18 h, lysate 0.125% v/v, CBE 75% v/v, 100 mM Sodium acetate pH 5.8, negative control 46.84) was 51.89%, the “FIOP (% area increase variant/pos control)” value ([2]; R4 round: 35 deg C, 18 h, lysate 0.125% v/v, CBE 75% v/v, 100 mM Sodium acetate pH 5.8, positive control R3) was 2.3 and the “% conversion (Right peak/Left Peak) (−neg control)” value ([2]; R5 round: 35 deg C, 18 h, lysate 0.0625% v/v, CBE 75% v/v, 100 mM Sodium acetate pH 5.8) was 2.02%. For the same molecule, the “Right Peak %” value ([2]; R5 round: 35 deg C, 18 h, lysate 0.0625% v/v, CBE 75% v/v, 100 mM Sodium acetate pH 5.8, negative control 26.23) was 26.79%, the “Left Peak %” value ([2]; R5 round: 35 deg C, 18 h, lysate 0.0625% v/v, CBE 75% v/v, 100 mM Sodium acetate pH 5.8, negative control 28.76) was 27.09% and the “Middle Peak %” value ([2]; R5 round: 35 deg C, 18 h, lysate 0.0625% v/v, CBE 75% v/v, 100 mM Sodium acetate pH 5.8, negative control 45.00) was 46.12%. For the same molecule, the “% conversion (Right peak/Left Peak)” value ([2]; R5 round: 35 deg C, 18 h, lysate 0.0625% v/v, CBE 75% v/v, 100 mM Sodium acetate pH 5.8, negative control 47.70) was 49.72%.

B2: Variant R1: engineered rhamnosidase polypeptide, variant of Kribbella flavida rhamnosidase SEQ ID No. 1017 (protein)
chain: MSFPAAPARLRFEHRTDPGPVLGIGTATPRLSWQVPTAPDDYRQAGYEVEIARGDAAPEQYTVDSADQVLVPWPGTPLAARESATVRVRVRGDGDWSQWSDPATVEAGLLSADDWTARFVSPRENAGHEAPAPLIGGVIDLPADIAQARLYATAHGIYEPTLNGTRVGDEQLAPGWTAYEQRLRYQTYDVTDLVAPGENRLELLVGNGWYRGRLGFHGGHSLYGDRLAVLAQLEVTTATGEVKVLASDGTWTTRETNVLADDLYDGQHVDLRRTLGEPGPVDVLDADLSLLVAPDGPPVRVTDVLPAKAVTTSPAGKTLVDFGQNVVGRLRLRVRGGAAGDEIVLRHAEVLEDGELGVRPLRTAKATDSFVLAGPDEVTLEPTLTFHGFRYAEITGVPDLRAEDVEAVVVGSDLRRTGWFESSHPLLDRFHENVVWGMRGNFLDVPTDCPQRDERLGWTGDIQVFSPTASFLFDTAGFLTNWLADLIAEQHKDGSVPFVVPDVLRQPGPATAAWGDAATIVPWVLYERTGDAGLLARQLPSMRAWVDRMAGLAGDDLLWVGGFQFGDWLDPTAPPDDPFRAKADPDVLATAHLARSAEVVALAAEVVGAGELAREYAELAARVRQAFAAEYTTGSGRVLSDAATNYALALQWALLPTEAQRKRAGERLADLVRTAGFRISTGFVGTPLMADALADSGHPDLAYRLLLETGCPSWLYAVTMDATTVWERWDSMLPDGSINPGQMTSFNHYALGAVADWMHRRVAGLAPGDPGYRRIVVDPLFTAHLTKASARHLTPYGEAAVAWSRSGGRVRLEVTVPVGARARVAVPGESAPVEVGHGTHEWTADDVYGETPPLPADATIRQLIDHEPSWTTLAAAATRTGIVADDAELAGRLERYLDHPATELVDAVSPRGFSPSAEALQAELDSVLGR
modifications: Seq ID No. 1017 with mutation K219G
In the case of B2, the “% change in Left Peak” value [1, 6] is reported as −40%, the “% change in Middle Peak” value [1, 6] is reported as −96% and the “% change in Right Peak” value [1, 6] is reported as 309%. For the same molecule, the “Cumulative Fold improvement” value [1, 6] was 2, the “Fold improvement in primary enzyme loading × time” value [1, 6] was 2.0 and the “% Right Peak” value [1, 6] was 80%. For the same molecule, the “% Left Peak” value [1, 6] was 18%, the “% Middle Peak” value [1, 6] was 2% and the “% change in Left Peak” value [1, 7] was −35%. For the same molecule, the “% change in Middle Peak” value [1, 7] was 17%, the “% change in Right Peak” value [1, 7] was 112% and the “Cumulative Fold improvement” value [1, 7] was 2. For the same molecule, the “Fold improvement in primary enzyme loading × time” value [1, 7] was 2.0, the “% Right Peak” value [1, 7] was 29% and the “% Left Peak” value [1, 7] was 19%. The “% Middle Peak” value [1, 7] was 51%, the “% conversion (Right peak/Left Peak) (−neg control)” value [2, 8] was 2.74% and the “Cumulative FIOP from WT” value [2, 8] was 1.7. For the same molecule, the “Right Peak %” value ([2]; R1 round: 20 deg C, 22 h, lysate 1.25% v/v, CBE 80% v/v, 100 mM Potassium phosphate pH 6, negative control 26.35) was 27.08%, the “Left Peak %” value ([2]; R1 round: 20 deg C, 22 h, lysate 1.25% v/v, CBE 80% v/v, 100 mM Potassium phosphate pH 6, negative control 29.36) was 27.04% and the “Middle Peak %” value ([2]; R1 round: 20 deg C, 22 h, lysate 1.25% v/v, CBE 80% v/v, 100 mM Potassium phosphate pH 6, negative control 44.30) was 45.89%. For the same molecule, the “% conversion (Right peak/Left Peak)” value ([2]; R1 round: 20 deg C, 22 h, lysate 1.25% v/v, CBE 80% v/v, 100 mM Potassium phosphate pH 6, negative control 47.30) was 50.04% and the “FIOP (% area increase variant/pos control)” value ([2]; R1 round: 20 deg C, 22 h, lysate 1.25% v/v, CBE 80% v/v, 100 mM Potassium phosphate pH 6, positive control WT) was 1.7.
